Drawing on paper PMC10687025, “Endosomal Arl4A attenuates EGFR degradation by binding to the ESCRT-II component VPS36” (Nature Communications, 2023), this text covers ratio to parent for four variants.

The chains are these.
B1: His-tagged Arl4A T51N [not stated] / GST-VPS36 (201–386) [not stated] (parent complex)
chain 1: MGNGLSDQTSILSNLPSFQSFHIVILGLDCAGKTTVLYRLQFNEFVNTVPNKGFNTEKIKVTLGNSKTVTFHFWDVGGQEKLRPLWKSYTRCTDGIVFVVDSVDVERMEEAKTELHKITRISENQGVPVLIVANKQDLRNSLSLSEIEKLLAMGELSSSTPWHLQPTCAIIGDGLKEGLEKLHDMIIKRRKMLRQQKKKR
chain 2: KIKDKQGDITEDETIRFKSYLLSMGIANPVTRETYGSGTQYHMQLAKQLAGILQVPLEERGGIMSLTEVYCLVNRARGMELLSPEDLVNACKMLEALKLPLRLRVFDSGVMVIELQSHKEEEMVASALETVSEKGSLTSEEFAKLVGMSVLLAKERLLLAEKMGHLCRDDSVEGLRFYPNLFMTQS
B2: untagged Arl4A T51N (pSG5) [not stated] / VPS36-WT-Myc [not stated] (parent complex)
chain 1: B1 chain 1
chain 2: MDRFVWTSGLLEINETLVIQQRGVRIYDGEEKIKFDAGTLLLSTHRLIWRDQKNHECCMAILLSQIVFIEEQAAGIGKSAKIVVHLHPAPPNKEPGPFQSSKNSYIKLSFKEHGQIEFYRRLSEEMTQRRWENMPVSQSLQTNRGPQPGRIRAVGIVGIERKLEEKRKETDKNISEAFEDLSKLMIKAKEMVELSKSIANKIKDKQGDITEDETIRFKSYLLSMGIANPVTRETYGSGTQYHMQLAKQLAGILQVPLEERGGIMSLTEVYCLVNRARGMELLSPEDLVNACKMLEALKLPLRLRVFDSGVMVIELQSHKEEEMVASALETVSEKGSLTSEEFAKLVGMSVLLAKERLLLAEKMGHLCRDDSVEGLRFYPNLFMTQS

Variants of B1 are the subject of one test. In words: GST pull-down with densitometric quantification; parent: 1; read off a plot.
For chain 2 KIKDKQGDITEDETIRFKSYLLSMGIANPVTRETYGSGTQYHMQLAKQLAGILQVPLEERGGIMSLTEVYCLVNRARGMELLSPEDLVNACKMLEALKLPLRLRVFDSGVMVIELQSHKEEEMVASALETVSEKGSLTSEEAAAAAGMSVLLAKERLLLAEKMGHLCRDDSVEGLRFYPNLFMTQS, the ratio to parent was around 0.31.
With chain 2 KIKDKQGDITEDETIRFKSYLLSMGIANPVTRETYGSGTQYHMQLAKQLAGILQVPLEERGGIMSLTEVYCLVNRARGMELLSPEDLVNACKMLEALKLPLRLRVFDSGVMVIELQSHKEEEMVASALETVSEKGSAAAAAFAKLVGMSVLLAKERLLLAEKMGHLCRDDSVEGLRFYPNLFMTQS, the ratio to parent was around 0.22.
Turning to chain 2 KIKDKQGDITEDETIRFKSYLLSMGIANPVTRETYGSGTQYHMQLAKQLAGILQVPLEERGGIMSLTEVYCLVNRARGMELLSPEDLVNACKMLEALKLPLRLRVFDSGVMVIELQSHKEEEMVASALETVSEKGSLTSEEFAKLVGMSVLAAAAALLLAEKMGHLCRDDSVEGLRFYPNLFMTQS, the ratio to parent was around 0.09.

The variants in another test derive from B2. In words: co-immunoprecipitation (Myc-Trap) with densitometric quantification; HeLa cell lysates; parent: 1; read off a plot.
As for chain 2 MDRFVWTSGLLEINETLVIQQRGVRIYDGEEKIKFDAGTLLLSTHRLIWRDQKNHECCMAILLSQIVFIEEQAAGIGKSAKIVVHLHPAPPNKEPGPFQSSKNSYIKLSFKEHGQIEFYRRLSEEMTQRRWENMPVSQSLQTNRGPQPGRIRAVGIVGIERKLEEKRKETDKNISEAFEDLSKLMIKAKEMVELSKSIANKIKDKQGDITEDETIRFKSYLLSMGIANPVTRETYGSGTQYHMQLAKQLAGILQVPLEERGGIMSLTEVYCLVNRARGMELLSPEDLVNACKMLEALKLPLRLRVFDSGVMVIELQSHKEEEMVASALETVSEKGSLTSEEFAKLVGMSVLAAAAALLLAEKMGHLCRDDSVEGLRFYPNLFMTQS [chain 2 L352A, chain 2 K354A, chain 2 E355A, chain 2 R356A], the ratio to parent was around 0.54.
